Our source for the protease stability score values is the NTF2 design screens of Basanta et al. (2020).

The data set can be described thus: protease stability score; higher = more stable; yeast display proteolysis, trypsin and chymotrypsin.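 Note: relative to predicted unfolded state with 0 unfolded-like and 1 meaning tenfold more protease.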
In turn, “HEEEEFSRRLAEMLFEFWLTGDEDALERLIDPNARVEMSINGRDFHTHGRDHIIEWVRKIKNLVFRIRRVEIQGEKIILDGEFDVNGVRTRWKLNLVFIDGVVHRLNIIHV” gave a protease stability score of 1.72.
As for “HEEEEHIWRMFKLFIHYLLTGDPDMLARYADPNVRLDINGQEWHGREEMFEMLKIFFDELRIKHFHLRRWRVVDGVAHVDVETHGNYNGREETRKVHIHVVIFNGRMKELVIKIS”, the protease stability score stood at 2.66.
For “HEEEEHSIRILEEWWRALLTGDEDRLKELMDPHVLLLSDVGDKNHIHIGREEAFRFWHEFVRQVKNMTLRIDQVHVQGDKVHLRGTLLINGRERDIRIDILIINGKVREVRIKII” the value was 2.45.
Take “HEEEEIERIAYNIYEYVRKTGDERVMTEMADPDARLIYGDKELVGREHMVQFLRWLLEQYKNVQLHIEHVEMIGDFVKIQSNLNVNGRTIEVELILLKYNGKWRIRSSVFK”: the protease stability score is 1.07.
The sequence “HEEEEIVHRFVEDWFRHLKTGDFRSLFQLLDPHTRTDINGKSIHGRDTIMTEIIENMIRLGVNHMEVRIHHISVVDGQAHIDIWLIIRVNGKEQAHHVHILAQKINGKWFLKDIRFE” yielded a protease stability score of 1.5.
“HEEEEKARYFLEIFFHHLLTGDWHILMELLDPDVRMEYDGKKFHGRESAIEIWRELRVTEIHIRHIHMFNGRVYADTEMRGIVNGVNTNTHSELYVRKYDGRWKVEFVVVH” gave a protease stability score of 2.31.
Sequence “HEEEEKVERYTRMYWNHLLTGDEDILQELMDPHARSTEIYGDFRIENHGRKAQHWLLRRIDHITSLRIHDVQIVDGVALVDSESDYRIGDKEIRVRTELIVHVVNGKIKSVSISVR” displayed a protease stability score of 0.896.
Take “HEEEELARKLVEILLNLLLTGDEDVIRHLLDPNARIHIDGQDNVGREEVIRVWRHWLEKFGIDHIEINRIHYQGEWLHIIGLVKVNGRERPLHIHLNVINGRLKHSEFRIR”: the protease stability score stood at 1.48.
The result for “HEEEELERTILELVLHYLKTGDEHFMKNMADPNARSTIGDKDLHGREWMSEVWKRIKNVRIEIDRVDMINGVVHLHITVEYNGRRTHLTLHAEKVDGRWIIRELRVE” reads 1.61; that for “HEEEELLERAMKELEHILRTGDWELHEKNADPHVKLDVNGRIVHGRELVITVLRRLFEELGVDHIHLHDFKVVGDKMHIDLRIHVGDKEFQLEIIIIKIDGRWHIHSERFN”, 0.363; that for “HEEEELLERVIRLMVENIITGNEDQLNNLVDPHAKIDIDGVILHGRDWVRDLHERVDHMEVRITDWRMIGDKVQTDSRLTNRFNGKEYRRDVRFHAHKINGRWINQTIEIR”, 0.722.
Regarding “HEEEEREKEISDTFLMAWRTGDWKFFHELADPHVRVEIGDKRFIGRELLTKHMRHNVNKVKGMTHTLTHIIIQGDKIHLDGELIVDGRSHKVDFHIIVIDGRLHSLHVIIS”, the protease stability score is 0.574.
The sequence “HEEEERLKEVLELVVESFRTGDFNYLKNLIDPNVRVTVGDKDVHGRDFFVRIMSEMRVTHYEFRHVERFNGQAHIDGELDIRIGDKRERHEIKIITLKINGKWYMETLIIQ” gave a protease stability score of 1.18.
“HEEEESFKNALEMWIRTVKTGDEKLESDLLDPDARLIFNGQEFHGRELVKKILIDWRKELRVRDFELRDFHIQGDKIYIDGTMFVEINGQTETRKIVIVFVKVNGRWLIHQVTFH” came in with a protease stability score of 2.24.
The result for “HEEEEWFKEVLHEVERLLMTGDWRTLVELLDPNVRININGVEYHGREEAHHKLEETFRRLGFDHIHFQHVEHQGEKVIVHLEVRFNGQSSIIRFVVLKVNGRWFNHSLQIN” reads 1.29; that for “HEEEHDLKEVIRLFLELIDTGDEDVLERLADPNMRVIQGDKTIHGREEVRRTMQEDAKRIDHFEFRLRRVRVINGRLEVDGEFIERAEGHEFRSRVNIMLVKVNGRWVLKIIELR”, 1.65.
“HEEEHEMRKLAHILFEVLLTGNWKLLAELADPDVLTHINGRDMHGMESELETWKHLRIRDMKIRHVDVQGDKVHLDTELEGEINGRRFQTRTHIHYLLVDGRTKHVKVQID” yielded a protease stability score of 1.51.
As for “HEEEHHMRELFKRFWHLFETGDWDKLAKNADPNVRSDINGVDRHGREEVIHELKRIWDELGIDHLELKEVHIQGNKVHSDGKLVYNGVSRKTHIELIVYNGVLKRMSIEIH”, the protease stability score stood at 1.38.
Consider “HEEEHVAKEIVEILYHAIITGDEDLIKELMDPNVRLDINGKQVHGRDEWIKELRHLRFRHMKLEVKAVEVVDGRIHSDVILHVDGHFDGRTRRLTIEVHWIIFKINGRWHIQSVEIR”, for which the protease stability score worked out at 2.31.
For “HEEEKEIEKWVRLLLEVIQTGDEHWFERMADPNARVEVGEFEKHGRELFFEMTVRIVKKLGVDHVQLRRFDLIDGVALDHMELRIGDKHVEFIHISSKVNGRWFDKEVRVREI” the value was 0.939; for “HEEEKHAHEVLQLFIESVETGDWRMWEHLADPHVRLEVNGQEVIGREDALRWLEELLKKLGVDHFKLELEDHHIQGEKVRSITRSHIRVNGVRIDRTTHVIIVVINGRLKHIEVRER”, 0.204.
“HEEEKHLKEMIERLYHYQLTGNWEELHRLADPHAKWHINGQDIHGMHIAVELILKEVRRIDHVDSDSKRIDMQGDKMRSNVHEIIEVGDKSIRRDSILILVIIDGRIREVSIIIL” gave a protease stability score of 1.1.
The result for “HEEEKHMEELSRHFLHNEHTGDEKMLKHLADPHAKVFINGRELHGWDVLVEWLNKFKNIKVELHSERVINGRLFLHVNYHVNGRTTELHLILYIVDGKIHTLILEVR” reads 0.756; that for “HEEEKHREDFVRTWLHNLITGNFEHHRHLADPRVRIRIIVDGREQRIHGREEMIRWFREWMELFPGYYRHIEHSDIIGEYVHIEGQLEVNGKRLDVHIHLEVINGKIKHLTIDSR”, 1.09.
The result for “HEEEKIIEEASKRWLELMQTGDEDKVLHYLDPEYRSEWDGVEIHGRETFRKWLLDLLRKFKGLRFEFRDVRDVGDKVRIIGTVTYDGKVRDTRIDVVIVNGRYKSMEIHFN” reads 1.69; that for “HEEEKLARTFSEVVERSLYTGDEDSLKRLMDPHVRMNVNGVRHIGMELAKEWLHRYIRQLGIDHSTIRHSHDEIQGEKVIVRLHGELVYNGVSREVELIIHVNKVNGVWTISELLVILK”, 1.25; that for “HEEEKLNHLWYEIVVHLLLTGNWKEIKKNADPHARSDINGVEYHGREEVSEVLHHVMKKMGAKVFREKEHDHQGEYMHIHFEIRVGDKLVESTLISLKVDGRWIHHEYREK”, 1.37.
For “HEEEKQIHDIIEIIIRLLVTGNEEIHKRLADPHVRVEVGDKHFHGREEVTKFLMRIDHVQHVDHRIHRMDIIDGRADVHGDLLIDGDFDGRRTRTDIRVRWRIIKIDGRWILHSYSVL”, the protease stability score came out at 1.24.
On to “HEEEKQMREAVEEAYHVLRTGDEKTIRELADPDVRLDINGKEIIGRELFFRHLWYEFYFFKNMRITIKHYEIQGEKVHIHIEIDWNGKELRSHMEVDKVDGRWLLHSVIFR”, for which the protease stability score stood at 0.783.
The result for “HEEEKSRKKEFEEYVRSVKTGDERLLTEMADPNARVHIGDKTLIGRELMHEMWHEQLKQIDVFHDIKTTHSEVQGDKIHMHVVEDIIIGDKRHTIRLRMIAWKFNGKWLVEEVRFE” reads 0.435; that for “HEEEQEIEKIVEDILRAWETGDWKTFYELADPHTKHTLIQGDKHIHRHGRDRMSDLLEELLKRFKGAIVDIKDIKWIDGQLNMTGELQIGDKKHKVHLHMNFIDGKIKRIEIRVD”, 1.13.
The result for “HEEERDAEKLIRIWYHYLVTGDEERLLELLDPSTRMDINGVTHHGMEIVRDALHDLLRHLGVKVFRDIHIESVEIQGEKVITRMHVLFEVDGQELRIDSILFSHKINGKWLIEMHSKK” reads 1.23; that for “HEEERDLEHWDELLLKSITTGDWRILTKLVDPHARIIILVNGKLITHIGREYVYHLLLRFDHIRTHDFRTNIQGDYIDHHIEGKLHVNGKDMDSHIINHSEKVDGRWTVHTVNIEFI”, 1.22.
Sequence “HEEEREAHEMLRIIVHAIRTGDEELLMRYLDPDVRMILLVDGVEVHRIGREEASKLISELWHHIRLKDLKVREIDNQGEYSHVRTERDGEVNGKKNTLETELDIIVIDGRVTDVTIRIR” came in with a protease stability score of 1.1.
Take “HEEERHREEIMERLLTAIKTGDPKITRELIDPHTRIEIGDKNLHGMEIWLKYIHTLFEKFPNLTLRIEDSHAQGEKFIIVIRLRFDGREVNLVLYYTIVNGRIKTIEIEEK”: the protease stability score was 1.43.
“HEEERILRFYLEWIEHHLRTGDERFIEENADPNVKIRVNGKDIHGRERYNEVWDKVLRDFGVDHTNDKDTTAYDGRIEVHEEWRFNGRRVDVETIIIFINGVIKHIEIRIRIE” had a protease stability score of 2.12.
“HEEERIVEEVAKHFLHHFVTGDWHNLARLADPHVRSDINGRELHGWETLIHVMLKDLRRLGFKHFEVHHVHIQGDKYHNDGTLDYNGVKVRSHLEFQIVDGKLHQMRVQDK” displayed a protease stability score of 1.07.
In turn, “HEEERLAREYMKRLIHDWVTGDEREHLKLLDPDVRFVQGDKHHHGREEMMRWFQEIRVEDLKHTDEKVYGEKAFVTGHTTWNINGQKIEVKVHYEFVVVNGRVKMIRIDVQ” registered a protease stability score of 1.22.
The result for “HEEETHWRSLTHLFAEWIITGNEDLYMELADPHYLIEIDGKTQHGRENANEVHETFWKDYGFKHRHVRSVRQVGDFVEIEVNLLFNGQRYDMHIHVFVIDGKLKEIHVSLK” reads 1.33; that for “HEEHDEMQEALRRFIDILHTGDEKERKELADPHVRIDVDGVDHHGREWLTKWTVRLAREMRIHPEIKHSEVFNGQIELHTSEKVDFNGVHEIIESFLLVIKINGRWFLTHVQVH”, 0.92.
For “HEEHEEAWHEIELTYHLLNTGDFDEMNRLLDPNVRIHIGDKRYHGRHELDLLITKLGVKHVRWEVKHADIQGDKVDMDTIVHITQGDKEIRRDTRIKIRKIDGKWFVTELHVT” the value was 1.28.
The result for “HEEHEKLRQLIEWYLEMLRTGDEESWLHLADPHVRNDVIYDGRHFQSHGRDRALDLLRLMLDLLGAKHLEVKRYRVIDGRVELDGRSRVGDKYQEMHLHLDVFNGRIHEMRIEIR” reads 0.58; that for “HEEHESLRRATRHELQTLETGDEDLFEKLVDPNYKVVINGVELHGMHELRRWIIELRIDDFELHDVNVVNGRASIDGTMHTHVNGQRLERKVRIHIEKINGRWVRREYIYH”, 0.726; that for “HEEHKHVKELAEMLIEWFLTGDEETTLDMADPDVRIDINGVDKIGRETVVEFKKRQHRDLGWDNIRFRPTHINAFDGRINIEGVIIVNGVTFKTEFRFEVINGRLKLDKWIVR”, 0.661.
With “HEEKELVNRSVELSYRVLKTGDEHTLEELLDPDAKTRLNINGKNEKLVGRENVLHIVTWFLDFLGIKHVELRDVRYVGDKVHIDMQIDVNGRHSRWHLIAEKIDGRWFMHSIQVEVH”, the protease stability score was 0.18.
“HEEKENIEQFMRDLLHNWTTGNFEKIKEFLDPNTRIDWNGKDIHGRETESEEVKKYGIDHMSIILRHHTVQGDYAHIDTEIKIDINGRKIHIDARIDLLKINGRWVQKHVLYL” gave a protease stability score of 1.3.
Consider “HEEKHEVQRFLEMLIELLVTGNEEILEHLADPHVRLEIDGRHFHGWKEFTRQYSELLKKLGADHVDMKIHEVHIIGDKVFIRGTDEFRVGDKTERKESHWVLLKVDGRWFIHSVKIG”, for which the protease stability score is 1.99.
